Test results reported in patent publication US20190248902A1 (published 2019).

T1: human ASGR-1 (human, UniProt P07306 1-291)
T1 construct: Stably expressed on CHO-S cells (CHO-S:huASGR-1); The method text says human or mouse ASGR-1 cells were used; also called huASGR-1; hASGR-1
T1 sequence: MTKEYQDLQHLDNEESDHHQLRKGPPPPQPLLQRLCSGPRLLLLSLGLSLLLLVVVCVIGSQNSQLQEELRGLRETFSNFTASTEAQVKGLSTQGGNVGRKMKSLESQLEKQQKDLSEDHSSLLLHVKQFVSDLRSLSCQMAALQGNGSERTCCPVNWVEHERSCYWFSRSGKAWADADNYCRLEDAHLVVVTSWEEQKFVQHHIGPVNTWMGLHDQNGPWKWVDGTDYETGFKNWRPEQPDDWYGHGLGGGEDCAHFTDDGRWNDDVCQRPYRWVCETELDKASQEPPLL


Legend:
human ASGR-1 [1] = target: T1, human ASGR-1; assay: FACS ligand blocking on CHO-S ASGR-1 cells; labelled ligand biotin-GalNAc-PAA (synthetic sugar)
Protocol: (§1) All ASGR-1 antibodies that bound either human or mouse ASGR-1 stable CHO—S cells were then tested for ligand blocking using both a protein ligand and a synthetic sugar ligand. The method in brief is as follows: first, 20 ul of either CHO-Shuman or mouse ASGR-1 cells were added to wells of a 384 well plate (30 k cells/well) followed by spin and discarding the supernatant. Second, 10 ul of the antibodies (either purified from hybridoma supernatants or made recombinantly) were added in duplicate to the cells in a dilution series (200 nM top concentration, 1:2 serial dilution, 11 point curve) and were incubated for 30 min at 4 C. […] After 30 min incubation at 4C, the plate was spun and washed twice with FACS buffer+1 mM CaCl2 followed by the detection streptavidin-AF647 at 1:1000 dilution. After 30 min at 4C, the cells were spun and washed once and then 60 ul PI added at 1:1000 dilution and the plates delivered to a core flow cytometry facility. The plates were read and processed similarly to the cell binding method except the signal now represents an inhibition curve and typically decreases a function of increasing antibody concentration. IC50 nM potency and % Inhibition were reported. […] Differences in the ability of antibodies to block these two ligands could occur as a result of differences in, for example, avidity stemming from differences in the number and/or orientation of the ASGR binding terminal sugar residues of each ligand, steric hindrance between antibody and each ligand, and/or changes in the conformation of ASGR induced by antibody binding that selectively alters the binding of each ligand.

human ASGR-1 [2] = target: T1, human ASGR-1; assay: FACS ligand blocking on CHO-S ASGR-1 cells; competitor biotinylated asialofetuin
Protocol: as §1

Row | Binder | % Inhibition (human ASGR-1 [1]) | IC50 (human ASGR-1 [1]) | % Inhibition (human ASGR-1 [2]) | IC50 (human ASGR-1 [2])
1 | 54E9 (antibody, V domains shown) VH: QVQLVQSGAEVKKPGASVKVSCKASGYTFNSYGISWVRLAPGQGLEWMGWISAYNGNTKNAQKLQGRVTMTTDTSTSTAYMELRSLRSDDTAVYYCARHDFWSGYYKGMDVWGQGTTVTVSS VL: not shown | 19% | 0.1 µM | 75% | 0.05 µM
2 | 48B12 (antibody, V domains shown) VH: EVQLLESGGGLVQPGGSLRLSCAASGFTFSSYAMNWVRQAPGKGLEWVSAISGRGGNTFYADSVKGRFTISRDNSKNTLYLQMNSLRAEDTAVYYCAKRETYNWNYEGFDYWGQGTLVTVSS VL: SYELTQPPSVSVSPGQTARITCSGDALPKKYAYWYQQKSGQAPVLVIYEDSKRPSGIPERFSGSSSGTMATLTISGAQVEDEADYYCNSTDSSGNHVVFGGGTKLTVL | 94% | 0.086 µM | 99% | 0.019 µM
3 | 56E5 (antibody, V domains shown) VH: QVQLVQSGAEVKKPGASVKVSCQASGYTFTGYHMHWVRQAPGQGLEWMGWINPNNNATNYAQKFQGRVTMTRDTSISTAYMELRRLRSDDTAVYHCARDGTSSFDYWGQGTLVTVSS VL: DIQMTQSPSSVSASVGDRVTITCRASQGIRKWLAWYQQKPGKAPKLLIYAASSLQSGVPSRFSGSGSGTDFTLTISSLQPEDFATYYCQQANSFPFTFGPGTKVDIK | 99% | 0.045 µM | 99% | 0.023 µM
4 | 193E7 (antibody, V domains shown) VH: QVQLQQWGAGLLKPSETLSLTCAVYGGSFSGYFWTWIRQPPGKGLEWIGEINHSGSTNYNPSLKSRVTISVDTSKNQFSLKLSSVTAADTAVYYCARDYGADYWGQGTLVAVSA VL: DIQMTQSPSSLSASVGDRVTITCRASQGIRNDLGWYQQKPGKAPKRLIYSASSLQRGVPSRFSGSGSGTEFTLTISSLQPEDFATYYCLQHKRYPLTFGGGTKVEIK | 60% | 0.033 µM | 99% | 0.03 µM
5 | 176H4 (antibody, V domains shown) VH: QVQLVESGGGVVQPGRSLRLSCAASGFTFSSYGMHWVRQAPGKGLEWVAIIWYDGSYKYYADSVKGRFTISRDNSKNTLYLQMSSLRAEDTAVYYCARDAHDFWSGYFAYWGQGALVTVSS VL: DIVMTQTPLSLSVTPGQPASISCKSSQSLLHGDGKTYLYWYLQKPGQPPQLLIYEVSNRFSGVPDRFSGSGSGTDFTLKISRVEAEDVGIYYCMQSIQIPWTFGQGTRVEIK | 79% | – | 99% | –
6 | 184E7 (antibody, V domains shown) VH: QVQLVQSGAEVKTPGASVKVSCRASGYTFTSYNMHWVRQVPGQGLEWMGWINPNNGGSNYTQKFQGRVTMTRDTSISTAYMELSRLRSDDTAVYYCARKFGDWGQGTLVTVSS VL: DIQMTQSPSSRSASIGERVTITCRASQGISNYLAWIQQKPGTAPKSLIYAASSLQSGVSSRFSGSGFGTDFTITISSVQREDFATYYCQQYNGYPFTFGHGTKVDIK | 99% | 0.01 µM | 99% | 0.023 µM
7 | 190F8 (antibody, V domains shown) VH: QVQLVESGGGVVQPGRSLRLSCAASGFTFSTYGMHWVRQAPGKGLEWVAVIWYDGSNKNYADSVKGRFTISRDNSKNTLYLQMNSLRAEDTAVYYCARDQGVGYDGLDVWGQGTTVTVSS VL: DIQMTQSPSSLSASVGDRVTITCRTSQGIGNYLAWFQQKPGKAPKSLLYKASSLQSGVPSKFSGSGSGTDFTLTISSLQPEDFATYYCQQYMTYPLTFGGGTKVEIK | 83% | 0.044 µM | 98% | 0.034 µM
8 | 191G1 (antibody, V domains shown) VH: QVQLVESGGGVVQPGRSLRLSCAASGFTFSSYGMHWVRQAPGKGLEWVAVIWYDGSNEHYADSVKGRFTISRDNSKNTLYLQMNSLRAEDTAVYYCARDRGVGYYGLDVWGQGTTVTVSS VL: DIQMTQSPSSLSASVGDRVTITCRASQGISNYLAWFQQKPGKAPKSLIYAASSLQSGVPSKFSGSGSGTDFTLTISSLQPEDFATYYCQHYLTYPLTFGGGTKVEIK | 78% | 0.062 µM | 99% | 0.024 µM

Second part, the binder after the results:

Row | % Inhibition (human ASGR-1 [1]) | IC50 (human ASGR-1 [1]) | % Inhibition (human ASGR-1 [2]) | IC50 (human ASGR-1 [2]) | Binder
9 | 99% | 0.115 µM | 99% | 0.029 µM | 75G3 (antibody, V domains shown) VH: QVQLQQWGAGLLKPSETLSLTCAVYGGSLSGSYWSWIRQPPGKGLEWIGEINLSGSTNYNPSLKSRVTISVDTSKSQFSLTLRSVTAADTAVYYCARDYGGLDYWGQGTLVTVSS VL: EIVLTQSPGTLSLSPGERATLSCRARQNVDSSYLAWYQQKPGQAPRLLIYGASSRATGIPDRFSGSGSGTDFTLTISRLEPEDFAVFYCQQYERSPWTFGQGTKVEIK
10 | 20% | 0.024 µM | 20% | 0.053 µM | 72G9 (antibody, V domains shown) VH: EVQLVESGGGLVKPGGSLRLSCAASGFTFSSYSMNWVRQAPGKGLEWVSSISGSSSYIYYADSVKGRFTISRDNAKNSLYLQMNSLRAEDTAVYFCARGGSRGFDPWGQGTLVTVSS VL: DIQMTQSPSSLSASVGDRVTITCRASQSITSYLNWYQQKPGKAPKLLIYTASSLQSGVPSRFSGSGSGTDFTLTISSLQPEDFATYYCQQSHSFPFTFGPGTKVDIK
11 | 99% | – | 99% | – | 194C10 (antibody, V domains shown) VH: QVQLQQWGAGLLKPSETLSLTCAVSGGSFRYYYWSWIRQPPGKGLEWFGEINHSGSTNYNPSLKSRVTISIDTSKNQFSLKLRSVTAADTAVYYCARDYGAFDIWGQGTMVTVSS VL: EIVLTQSPGTLSLSPGERATLSCRASPSVNSGYLAWYQQKPGQTPRLLIFGASSRATGIPDRFSASGSGADFTLTISRLEPEDFAVYFCQQYESSPWTFGQGTKVEIK
12 | 60% | 0.048 µM | 99% | 0.057 µM | 194A4 (antibody, V domains shown) VH: QVQLVQSGTEVKKPGASLKVSCKASGYTFTVYYLNWVRQAPGQGLEWMGWINPNSGGTNYAQKFQGRVTMTRDTSISTAYMELSRLRSDDTAVYYCARGYDILTGWGQGTLVTVSS VL: EIVLTQSPGTLSLSPGERATLSCRASRGVSNIYLAWYQQKPGQAPRLLIYGASNRATGIPDRFSGSGSGTDFTLTISRLEPEDFAVYYCQHNDYSMFTFGPGTKVDIK
13 | 99% | 0.017 µM | 99% | 0.007 µM | 29H8 (antibody, V domains shown) VH: QVQLVQSGAEVQKPGASVKVSCKASGYTFTNYDINWVRQATGQGLEWMGWMNPNSGNTGYAQRFQGRVTMTRNTSISAAYMELSSLRSEDTAVYYCASSSGWYYFDYWGQGTLVTVSS VL: not shown
14 | 89% | 0.072 µM | 99% | 0.034 µM | 194C1 (antibody, V domains shown) VH: QVQLVESGGGVVQPGRSLRLSCAASGFTFSSYGMHWVRQAPGKGLEWVAVIWYDGSNEHYADSVKGRFTISRDNSKNTLYLQMNSLRAEDTAVYYCARNRGVGYYGLDVWGQGTTVTVSS VL: DIQMTQSPSSLSASVGDRVTITCRASQGISNYLAWFQQKPGKAPKSLIYAASSLQSGVPSKFSGSGSGTDFTLTISSLQPEDFATYYCLHYLTYPLTFGGGTKVEIK
15 | 81% | 0.005 µM | 99% | 0.026 µM | 198G3 (antibody, V domains shown) VH: QVQLVESGGGVVQPGRSLKLSCAASGFTFSTYGMHWVRQAPGKGLEWVAVIWYDGTNKNYADSVKGRFTISRDNSKNTLCLQMNSLRAEDTAVYYCARDQGVGYDGLDVWGQGTTVTVSS VL: DIQMAQSPSSLSASVGDRVTITCRTSQGIGKYLAWFQQKPGKAPKSLLYKASSLQGGVPSKFSGSGSGTDFTLTISSLQPEDFATYYCQQYMTYPLTFGGGTKVEIK
16 | 99% | 0.056 µM | 99% | 0.027 µM | 191G10 (antibody, V domains shown) VH: QVQLVESGGGVVQPGRSLRLSCAASGFTFSSYGMHWVRQAPGKGLEWVAVIWYDGSNKNYADSVKGRFTISRDNSKNTLYLQMNSLRAEDTAVYYCARDQGVGYDGLDVWGQGTTVTVSS VL: DIQMTQSPSSLSASVGDRVTITCRTSQGIGKYLAWFQQKPGKAPKSLLYKVSSLQSGVPSKFSGSGSGTDFTLTISSLQPEDFATYYCQQYMTYPLTFGGGTKVEIK
